These results are taken from patent publication US7790673 (dated 2010).

B1: wild type human cystatin C (other)
chain: SSPGKPPRLVGGPMDASVEEEGVRRALDFAVGEYNKASNDMYHSRALQVVRARKQIVAGVNYFLDVELGRTTCTKTQPNLDNCPFHDQPHLKRKAFCSFQIYAVPWQGTMTLSKSTCQDA
B2: variant human cystatin C (L68Q, HCHWA-I variant) (other)
chain: B1 chain with L68Q
B3: urinary cystatin C (Calbiochem Biosciences) (other)
chain: B1 chain

Substitutions are numbered along the chain they refer to. Numbers in names are those of the source.

Chain of Aβ1-40 synthetic peptide (P05067 672-711): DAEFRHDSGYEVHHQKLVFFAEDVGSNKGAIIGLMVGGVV
Chain of Aβ1-42 synthetic peptide (P05067 672-713): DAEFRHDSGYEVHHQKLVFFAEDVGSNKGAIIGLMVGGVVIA

One test concerns the target Aβ1-42 synthetic peptide (UniProt P05067 672-713). The test is described as follows: ELISA. In general terms: ELISA stands for enzyme-linked immunosorbent assay.
Broadly, the Kd is the constant that tells how readily two partners part at equilibrium. In turn, B1 yielded a Kd of 10.6 nM.
B2 came in with a Kd of 5.9 nM.
Molecule B3 had a Kd of 6.6 nM.

Another test addresses Aβ1-40 synthetic peptide (UniProt P05067 672-711). Briefly: ELISA.
B1 yielded a Kd of 16.4 nM.
The same measure, in the same setting: under B2 stands 9.2 nM.
Take B3: the Kd was 9 nM.
